Measurements reported in patent US20230287125A1 (LEPU BIOPHARMA, published 2023).
Changes are numbered by the printed parent chain. Names and notes keep the numbering of the source.

B1: Hu89C10H8-9 (antibody, V domains shown)
VH: EVQLVESGGGLVKPGGSLRLSCAASGFTFSNYWMTWVRQAPGKGLEWVASITNTGSSTFYPDSVKGRFTISRDNAKNSLYLQMNSLRAEDTAVYYCARDTTIAPFDYWGQGTMVTVSS
VL: DIQMTQSPSSLSASVGDRVTITCKASQNLNEYLNWYQQKPGKAPKRLIYKTNTLQAGIPSRFSGSGSGIDYTLTISSLQPEDFATYYCSQYNSGNTFGQGTKLEIK
notes: humanized
B2: Hu89C10H8-10 (antibody, V domains shown)
VH: B1 VH with A97T
VL: B1 VL
notes: humanized
B3: Hu67F3G7-20 (antibody, V domains shown)
VH: EVQLVQSGAEVKKPGASVKVSCKASGYIFTDFWVSWVRQAPGKGLEWIGEIYPNSGVSRYNEKFKGRVTMTVDKSISTAYMELSRLRSDDTAVYYCTKYFGYTYWFGYWGQGTLVTVSS
VL: DTVLTQSPSLSASVGDRVTITCRASKSVSTYMHWYQQKPGKQPKLLIYSASHLESGVPSRFSGSGSGTDFTLTISSLQPEDFATYYCQQSNELPVTFGGGTKVEIK
notes: humanized
B4: Hu67F3G7-21 (antibody, V domains shown)
VH: B3 VH with I28T, K43Q, I48M, T97A, K98R
VL: DIQMTQSPSSLSASVGDRVTITCRASKSVSTYMHWYQQKPGKQPKLLIYSASHLESGVPSRFSGSGSGTDFTLTISSLQPEDFATYYCQQSNELPVTFGGGTKVEIK
notes: humanized
B5: Hu67F3G7-19 (antibody, V domains shown)
VH: B3 VH with K43Q, T97A, K98R
VL: B3 VL
notes: humanized
B6: Hu67F3G7-22, Human IgG1 (N297A)-Fc (antibody, V domains shown)
VH: B3 VH with I28T, K43Q, I48M
VL: B4 VL
B7: Hu89C10H8-7, Human IgG1 (N297A)-Fc (antibody, V domains shown)
VH: B1 VH with V37I, A97T
VL: B1 VL with I69T
B8: 47C6A3, Human IgG1 (N297A)-Fc (antibody, V domains shown)
VH: DVQLQESGPGLVKPSQSLSLTCTVTGYSITSDYAWNWIRQFPGNKLEWMGYIIYSGSTSYNPSLKSRISITRDTSKNQFFLQLNSVTTEDTATYYCARSTMIATNWFAYWGQGTLVTVSA
VL: DIVMTQSHKFMSTSVVDRVSITCKASQDVSLAVAWYQQKPGQSPKLLIYWASTRHTGVPDRFTGSGSGTDFALTISSVQAEDLALYYCQQHYITPWTFGGGTKLEIK
B9: Hu67F3G7-18 (antibody, V domains shown)
VH: B3 VH with K43Q
VL: B3 VL
notes: humanized
B10: Hu67F3G7-14 (antibody, V domains shown)
VH: B3 VH with K43Q, T97A, K98R
VL: B4 VL with I2T, Q3V, M4L
notes: humanized
B11: Hu67F3G7-15 (antibody, V domains shown)
VH: B3 VH
VL: B4 VL with I2T, Q3V, M4L
notes: humanized
B12: Hu67F3G7-16 (antibody, V domains shown)
VH: B3 VH with I28T, K43Q, I48M, T97A, K98R
VL: B3 VL
notes: humanized
B13: Hu67F3G7-17 (antibody, V domains shown)
VH: B3 VH with I28T, K43Q, I48M
VL: B3 VL
notes: humanized
B14: Hu67F3G7-13 (antibody, V domains shown)
VH: B3 VH with K43Q
VL: B4 VL with I2T, Q3V, M4L
notes: humanized
B15: Hu89C10H8-13 (antibody, V domains shown)
VH: B1 VH
VL: B1 VL with P40L, K42E, Y87F
notes: humanized
B16: Hu89C10H8-14 (antibody, V domains shown)
VH: B1 VH with A97T
VL: B1 VL with P40L, K42E, Y87F
notes: humanized
B17: Hu89C10H8-15 (antibody, V domains shown)
VH: B1 VH with V37I, A97T
VL: B1 VL with P40L, K42E, Y87F
notes: humanized
B18: Hu89C10H8-16 (antibody, V domains shown)
VH: B1 VH with V37I, N77S, A97T
VL: B1 VL with P40L, K42E, Y87F
notes: humanized

target: T1, human PD-L1-Fc protein (human, UniProt Q9NZQ7 19-238); assay: ELISA, antibody titrated on coated human PD-L1-Fc, OD 450nm; upper right panel
T1 construct: coating antigen of the ELISAs; also called rhPD-L1-Fc; not shown: Fc
T1 sequence (Q9NZQ7 19-238 limits assumed): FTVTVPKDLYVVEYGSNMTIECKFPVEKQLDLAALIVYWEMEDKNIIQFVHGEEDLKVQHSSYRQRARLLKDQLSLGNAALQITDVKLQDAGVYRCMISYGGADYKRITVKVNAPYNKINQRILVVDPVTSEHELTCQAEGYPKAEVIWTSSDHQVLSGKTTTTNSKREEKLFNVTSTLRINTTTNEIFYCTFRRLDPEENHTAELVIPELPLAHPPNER
Method: (§1) To evaluate antigen binding activity, the humanized antibodies were subjected to ELISA test. Briefly, microtiter plates were coated with human PD-L1-Fc protein at 0.5 μg/ml in PBS, 100 μl/well at 4° C. overnight, then blocked with 200 μl/well of 1% BSA. Three-fold dilutions of humanized antibodies starting from 10 μg/ml were added to each well and incubated for 1 hour at 37° C. The plates were washed with PBS/Tween and then incubated with mouse-anti-human IgG Fab antibody conjugated with Horse Radish Peroxidase (HRP) for 1 hour at 37° C. After washing, the plates were developed with TMB substrate and analyzed by spectrophotometer at OD 450 nm.

Row | EC50 | Binder
1 | 0.00842 µg/mL | B1
2 | 0.00782 µg/mL | B2

target: T1, human PD-L1-Fc protein; assay: ELISA, antibody titrated on coated human PD-L1-Fc, OD 450nm; lower right panel
Method: as §1

Row | EC50 | Binder
3 | 0.0146 µg/mL | B3
4 | 0.00919 µg/mL | B4
5 | 0.0132 µg/mL | B5

target: PD-L1 on PD-L1 target cells (Homo sapiens (Human), UniProt Q9NZQ7 19-290); assay: cell-based or functional assay
Sequence (Q9NZQ7 19-290 limits assumed): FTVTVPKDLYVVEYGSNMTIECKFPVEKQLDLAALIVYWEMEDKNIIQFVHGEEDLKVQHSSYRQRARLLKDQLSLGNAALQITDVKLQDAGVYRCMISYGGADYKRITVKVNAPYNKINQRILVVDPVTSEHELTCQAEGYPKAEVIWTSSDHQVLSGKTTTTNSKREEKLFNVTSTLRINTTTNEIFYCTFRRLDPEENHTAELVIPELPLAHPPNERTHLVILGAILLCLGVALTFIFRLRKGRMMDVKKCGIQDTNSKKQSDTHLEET

Row | EC50, NFAT-RE-mediated luminescence, PD1 effector cells co-cultured with PD-L1 target cells | Binder
6 | 0.103 nM | B6
7 | 0.214 nM | B7
8 | 0.15 nM | B8

target: T2, human PD-L1-his tag protein (human, UniProt Q9NZQ7 19-238); assay: SPR (Biacore), affinity ranking, PDL1-His
T2 construct: also called human PD-L1-His protein; recombinant PD-L1 protein; not shown: his tag
T2 sequence (Q9NZQ7 19-238 limits assumed): as the sequence (Q9NZQ7 19-238 limits assumed) above

Row | Kd | koff | kon | Binder
9 | 0.0331 nM | 9.51e-05 s⁻¹ | 2.88e+06 M⁻¹ s⁻¹ | B9
10 | 0.0519 nM | 0.000109 s⁻¹ | 2.09e+06 M⁻¹ s⁻¹ | B10
11 | 0.0371 nM | 9.69e-05 s⁻¹ | 2.61e+06 M⁻¹ s⁻¹ | B11
12 | 0.0347 nM | 9.36e-05 s⁻¹ | 2.7e+06 M⁻¹ s⁻¹ | B3
13 | 0.0754 nM | 0.000111 s⁻¹ | 1.48e+06 M⁻¹ s⁻¹ | B12
14 | 0.156 nM | 8.43e-05 s⁻¹ | 540000 M⁻¹ s⁻¹ | B4
15 | 0.037 nM | 0.000101 s⁻¹ | 2.74e+06 M⁻¹ s⁻¹ | B13
16 | 0.0545 nM | 0.000107 s⁻¹ | 1.97e+06 M⁻¹ s⁻¹ | B5
17 | 0.0341 nM | 9.54e-05 s⁻¹ | 2.8e+06 M⁻¹ s⁻¹ | B14
18 | 0.713 nM | 0.000478 s⁻¹ | 671000 M⁻¹ s⁻¹ | B1
19 | 0.151 nM | 8.99e-05 s⁻¹ | 595000 M⁻¹ s⁻¹ | B2
20 | 0.561 nM | 0.000433 s⁻¹ | 764000 M⁻¹ s⁻¹ | B15
21 | 0.137 nM | 9.75e-05 s⁻¹ | 712000 M⁻¹ s⁻¹ | B16
22 | 0.0918 nM | 7.17e-05 s⁻¹ | 781000 M⁻¹ s⁻¹ | B17
23 | 0.098 nM | 6.54e-05 s⁻¹ | 667000 M⁻¹ s⁻¹ | B18

target: T1, human PD-L1-Fc protein; assay: ELISA, antibody titrated on coated human PD-L1-Fc, OD 450nm; lower left panel; the table row is headed 'IC50' on the sheet although the curves rise
Method: as §1

Row | EC50 | Binder
24 | 0.014 µg/mL | B9
25 | 0.0144 µg/mL | B10
26 | 0.0111 µg/mL | B11
27 | 0.0114 µg/mL | B12
28 | 0.0136 µg/mL | B13
29 | 0.0102 µg/mL | B14

target: T1, human PD-L1-Fc protein; assay: ELISA, antibody titrated on coated human PD-L1-Fc, OD 450nm; lower left panel
Method: as §1

Row | EC50 | Binder
30 | 0.00994 µg/mL | B15
31 | 0.00983 µg/mL | B16
32 | 0.0088 µg/mL | B17
33 | 0.00757 µg/mL | B18
